Where two headings read alike, the source gives them in different places. Bounds are passed on as bounds.

Data on 2 molecules can be found in patent US20260062487A1 (GRITSTONE BIO, published 2026).

The target in test [1] is HLA-PEPTIDE target A*01:01_… (G2) on cells (human). The experiment in a line: cell-based or functional assay.
The target of test [2] is T1, A*01:01 with … (V or E 1) on pulsed K562-HLA cells (human).
T1 construct: whole, on cells
The experiment in a line: flow cytometry, K562-HLA cells pulsed with peptide.

In test [3] the target is T2, HLA-PEPTIDE target A*01:01_… (G2) on cells (human).
T2 construct: whole, on cells; also recovered from cell lysates in the IP-MS experiment; also called G2 pHLA; G2 target
Nature of the test: flow cytometry, K562-HLA cells pulsed with peptide.

The target of test [4] is T3, A*01:01 with … (V or E 6) on pulsed K562-HLA cells (human).
T3 construct: whole, on cells
Nature of the test: flow cytometry, K562-HLA cells pulsed with peptide.

For test [5], the target named is T4, A*01:01 with … (V or E 3) on pulsed K562-HLA cells (human).
T4 construct: whole, on cells
Nature of the test: flow cytometry, K562-HLA cells pulsed with peptide.

Test [6] addresses T5, A*01:01 with … (V or E 5) on pulsed K562-HLA cells (human).
T5 construct: whole, on cells
Nature of the test: flow cytometry, K562-HLA cells pulsed with peptide.

The target of test [7] is T6, A*01:01 with … (V or E 4) on pulsed K562-HLA cells (human).
T6 construct: whole, on cells
The experiment in a line: flow cytometry, K562-HLA cells pulsed with peptide.

The target in test [8] is T7, A*01:01 with … (V or E 2) on pulsed K562-HLA cells (human).
T7 construct: whole, on cells
The experiment in a line: flow cytometry, K562-HLA cells pulsed with peptide.

Test [9] has as its target T2, HLA-PEPTIDE target A*01:01_… (G2) on …. The experiment in a line: flow cytometry, anti IgG PE, A375 9mer cells (1e6 copies of G2 pHLA per cell).
The target is the same in test [10]. Nature of the test: flow cytometry, anti-IgG PE, K562-A01:01 cells pulsed with peptide (20,000 to 40,000 copies/cell).
Method: (§1) HLA-transduced K562 cells were pulsed the night before with 50 μM of peptide (Genscript) in IDMEM containing 1% FBS in 6 well plates and incubated under standard tissue culture conditions. Cells were harvested, washed in PBS, and stained with eBioscience Fixable Viability Dye eFluor 450 for 15 minutes at room temperature. […] After another wash, PE-conjugated goat anti-human IgG secondary antibody (Jackson ImmunoResearch) was added at 1:100. After incubating at 4° C. for 45 minutes and washing in PBS+2% FBS, cells were resuspended in PBS+2% FBS and analyzed by flow cytometry. Flow cytometric analysis was performed on the Attune NxT Flow Cytometer (ThermoFisher) using the Attune NxT Software. Data was analyzed using FlowJo.
Test [11] concerns the target T8, off-target HLA-A*01:01_… (KDM7A) on cells (human).
T8 construct: whole, on cells; also called validated OTLA; Control peptide-4
The test is described as above.
Method: as §1

In test [12] the target is T2, HLA-PEPTIDE target A*01:01_… (G2) on …. Nature of the test: flow cytometry, anti IgG PE, A375 9mer cells (1e6 copies per cell).
Method: (§2) A375 transduced with luciferase alone served as the negative control. […] Binding was determined by flow cytometery using an anti IgG-PE antibody for detection.
The target is the same in test [13]. The experiment in a line: flow cytometry, anti-IgG PE, peptide-pulsed K562 cells.
Method: as §1
In test [14] the target is T9, CD3 on CD3+ Jurkat cells (human, UniProt P07766 23-207).
T9 construct: whole, on cells
The experiment in a line: flow cytometry, anti IgG PE, CD3+ Jurkat cells.
Method: Increasing concentrations of the antibodies were incubated with CD3(+) and CD9(−) Jurkat cells. Binding was determined by flow cytometery using an anti IgG-PE antibody for detection.

In test [15] the target is T2, HLA-PEPTIDE target A*01:01_… (G2) on …. Nature of the test: IP-MS, NCI-H1703 lysate, Rep1.
Method: (§3) 2×10⁸ cells expressing A*01:01/CT83 (NCI-H1703, A375±CT83) were re-suspended in 5 ml lysis buffer (1% CHAPS, 150 mM sodium chloride, 20 mM Tris pH 8) in the presence of phosphatase, and protease inhibitors. The cells were homogenized by sonication, rotated at 4° C. for 1 hr, and spun at 21,000×g for 30 min. to pellet cell debris.
(§4) After immunoprecipitation, the IP beads were isolated using filter plates, then washed to remove non-specific binding using Tris pH 8 buffers with increasing levels of NaCl. The HLA/peptide complex was eluted from the beads using 2N acetic acid. The protein components were removed from the peptides using C18 fractionation. The resultant peptides were taken to dryness by SpeedVac evaporation and stored at −20° C. prior to MS analysis.
In test [16] the target is T10, off-target HLA-A*01:01_… (PTS) on cells (human).
T10 construct: whole, on cells; also called validated OTLA; Control peptide-3
Nature of the test: IP-MS, NCI-H1703 lysate, Rep1.
Method: as §3, §4

For test [17], the target named is T11, HLA-A*01:01 with … (ERGIC3) from cells (human).
T11 construct: whole, on cells
Nature of the test: IP-MS, NCI-H1703 lysate, Rep1.
Method: as §3, §4

Test [18] addresses T12, off-target HLA-A*01:01_… (ICE1) on cells (human).
T12 construct: whole, on cells; also called … (IC1); validated OTLA
Nature of the test: IP-MS, NCI-H1703 lysate, Rep1.
Method: as §3, §4

In test [19] the target is T11, HLA-A*01:01 with … (ERGIC3) from cells. Nature of the test: IP-MS, K562-A*01:01 lysate (ND: Not detected; W6/32 recovers the peptide).
Method: as §3, §4
In test [20] the target is T13, G5 pHLA (HLA-B*35:01 with …) on cells (human).
T13 construct: whole, on cells
The experiment in a line: flow cytometry, peptide-pulsed cells.
Method: as §1

Test [21] addresses T2, HLA-PEPTIDE target A*01:01_… (G2) on …. Nature of the test: IP-MS, NCI-H1703 lysate, Rep2.
Method: as §3, §4
The target in test [22] is T10, off-target HLA-A*01:01_… (PTS) on cells. The experiment in a line: IP-MS, NCI-H1703 lysate, Rep2.
Method: as §3, §4
Test [23] has as its target T11, HLA-A*01:01 with … (ERGIC3) from cells. Nature of the test: IP-MS, NCI-H1703 lysate, Rep2.
Method: as §3, §4
For test [24], the target named is T12, off-target HLA-A*01:01_… (ICE1) on cells. The experiment in a line: IP-MS, NCI-H1703 lysate, Rep2.
Method: as §3, §4
The target of test [25] is T14, refolded A*01:01/b2m complex with the ROBO1 peptide … (human, UniProt P61769 21-119).
T14 construct: also called ROBO1 pHLA complex
The experiment in a line: BLI (Octet), refolded pHLA.

Test [26] concerns the target T9, CD3 on CD3+ Jurkat cells. The experiment in a line: flow cytometry, anti IgG PE, CD3+ Jurkat cells. This is another data set of the same source.
Test [27] addresses T15, biotinylated refolded G2-pHLA (A*01:01/b2m/…) (human, biotinylated at the C-terminal AviTag).
T15 construct: Soluble complex caught on streptavidin sensors or MSD plates; also called G2-peptide A*01:01/b2m complex; WT
The experiment in a line: Octet biolayer interferometry, 120 s association and 120 s dissociation.

In test [28] the target is T14, refolded A*01:01/b2m complex with the …. The test is described as above.
Test [29] concerns the target T2, HLA-PEPTIDE target A*01:01_… (G2) on …. The experiment in a line: flow cytometry, anti IgG PE, A375 9mer cells (1e6 copies per cell). The source holds these as a separate data set.
Method: as §2

T9 sequence (P07766 23-207): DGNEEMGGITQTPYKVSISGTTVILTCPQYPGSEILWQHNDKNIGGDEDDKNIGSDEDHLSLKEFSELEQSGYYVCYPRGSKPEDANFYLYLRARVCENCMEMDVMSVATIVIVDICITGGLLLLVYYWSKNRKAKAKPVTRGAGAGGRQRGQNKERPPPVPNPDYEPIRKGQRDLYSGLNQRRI

B1: 41-E07 hOKT3a diabody (Format 41 31E07-CD3 bispecific antibody) (bispecific antibody, human IgG1, kappa)
chain: QVQLVQSGAEVKKPGASVKVSCKASGFTFTNYLIHWVRQAPGQGLEWMGWINPNSGGTNYAQRLQGRVTMTRDTSTSTVYMELSSLRSEDTAVYYCARDYGAGNDYWGQGTLVTVSSGGGGSGGGGSDIQMTQSPSSLSASVGDRVTITCRASQEIRRWLAWYQQKPGKAPKLLIYAASNLQSGVPSRFSGSGSGTDFTLTISSLQPEDFATYYCQQSYSTPYTFGQGTKLEIKGGGGSEPKSSDKTHTCPPCPAPEFEGGPSVFLFPPKPKDTLMISRTPEVTCVVVDVSHEDPEVKFNWYVDGVEVHNAKTKPREEQYNSTYRVVSVLTVLHQDWLNGKEYKCKVSNKALPASIEKTISKAKGQPREPQVYTLPPCREEMTKNQVSLWCLVKGFYPSDIAVEWESNGQPENNYKTTPPVLDSDGSFFLYSKLTVDKSRWQQGNVFSCSVMHEALHNHYTQKSLSLSPGK
heavy: QVQLVQSGAEVKKPGASVKVSCKASGFTFTNYLIHWVRQAPGQGLEWMGWINPNSGGTNYAQRLQGRVTMTRDTSTSTVYMELSSLRSEDTAVYYCARDYGAGNDYWGQGTLVTVSSGGGGSGGGGSDIQMTQSPSSLSASVGDRVTITCRASQEIRRWLAWYQQKPGKAPKLLIYAASNLQSGVPSRFSGSGSGTDFTLTISSLQPEDFATYYCQQSYSTPYTFGQGTKLEIKGGGGSGGGGSQVQLVQSGAEVKKPGASVKVSCKASGYTFTRYTMHWVRQAPGQGLEWMGYINPSRGYTNYNQKFKDRVTLTTDKSSSTAYMELSSLRSEDTAVYYCARYYDDHYSLDYWGQGTLVTVSSASTKGPSVFPLAPSSKSTSGGTAALGCLVKDYFPEPVTVSWNSGALTSGVHTFPAVLQSSGLYSLSSVVTVPSSSLGTQTYICNVNHKPSNTKVDKRVEPKSCDKTHTCPPCPAPEFEGGPSVFLFPPKPKDTLMISRTPEVTCVVVDVSHEDPEVKFNWYVDGVEVHNAKTKPREEQYNSTYRVVSVLTVLHQDWLNGKEYKCKVSNKALPASIEKTISKAKGQPREPQVCTLPPSREEMTKNQVSLSCAVKGFYPSDIAVEWESNGQPENNYKTTPPVLDSDGSFFLVSKLTVDKSRWQQGNVFSCSVMHEALHNRFTQKSLSLSPGK
light: DIQMTQSPSSLSASVGDRVTITCSASSSVSYMNWYQQKPGKAPKRLIYDTSKLASGVPSRFSGSGSGTDFTLTISSLQPEDFATYYCQQWSSNPFTFGQGTKLEIKRTVAAPSVFIFPPSDEQLKSGTASVVCLLNNFYPREAKVQWKVDNALQSGNSQESVTEQDSKDSTYSLSSTLTLSKADYEKHKVYACEVTHQGLSSPVTKSFNRGEC
notes: also called E07-CD3 diabody; 41-31E07-hOKT3a
With B1, the “EC50 (ug/ml), luciferase-cytotoxicity assay with human T cells, A375-CT83 cells” value in [1] turned out to be 0.00017 µg/mL. Besides, the “EC50 (ug/ml), luciferase-cytotoxicity assay with human T cells, NCI-H820 cells” value in [1] amounted to 0.077 µg/mL. In addition, the “EC50 (ug/ml), luciferase-cytotoxicity assay with human T cells, NCI-H1703 cells” value in [1] was determined as 0.0025 µg/mL. Moreover, the “Max Binding” value came out at 1880 in [2]; 5560 in test [3]; 1400 in test [4]; 5680 in test [5]; 2630 in [6]; 1560 in test [7]. Also, in test [8], the “Max Binding” value came out at 4680. The 50% effective concentration (EC50 (read off the curve)) in test [9] is around 3 nM; in test [10], around 0.3 µg/mL; in test [12], around 2 nM; in test [13] it was around 0.06 µg/mL; with CD3 on CD3+ Jurkat cells [14], around 20 nM. Also, the binding result in test [11] is given as “no binding (tested: 100 ug/ml)”; in test [19], “no binding”. For the same molecule, the “copies per cell of the peptide recovered by immunoprecipitation” value was 2960 copies per cell in [15]; 40 copies per cell in [16]; 34 copies per cell in test [17]; 33 copies per cell in test [18]; 2960 copies per cell in test [21]; 42 copies per cell in test [22]. Moreover, the “copies per cell of the peptide recovered by immunoprecipitation” value in test [23] worked out at 37 copies per cell; in test [24], 32 copies per cell. Moreover, in [20], the “log difference in EC50 against the G2 peptide [..]” value was determined as 3 log.

B2: 41-E07 UCHT1v9 (Format 41 31E07-CD3 bispecific antibody) (bispecific antibody, human IgG1, kappa)
chain: B1 chain
heavy: QVQLVQSGAEVKKPGASVKVSCKASGFTFTNYLIHWVRQAPGQGLEWMGWINPNSGGTNYAQRLQGRVTMTRDTSTSTVYMELSSLRSEDTAVYYCARDYGAGNDYWGQGTLVTVSSGGGGSGGGGSDIQMTQSPSSLSASVGDRVTITCRASQEIRRWLAWYQQKPGKAPKLLIYAASNLQSGVPSRFSGSGSGTDFTLTISSLQPEDFATYYCQQSYSTPYTFGQGTKLEIKGGGGSGGGGSEVQLVESGGGLVQPGGSLRLSCAASGYSFTGYTMNWVRQAPGKGLEWVALINPYKGVSTYNQKFKDRFTISVDKSKNTAYLQMNSLRAEDTAVYYCARSGYYGDSDWYFDVWGQGTLVTVSSASTKGPSVFPLAPSSKSTSGGTAALGCLVKDYFPEPVTVSWNSGALTSGVHTFPAVLQSSGLYSLSSVVTVPSSSLGTQTYICNVNHKPSNTKVDKRVEPKSCDKTHTCPPCPAPEFEGGPSVFLFPPKPKDTLMISRTPEVTCVVVDVSHEDPEVKFNWYVDGVEVHNAKTKPREEQYNSTYRVVSVLTVLHQDWLNGKEYKCKVSNKALPASIEKTISKAKGQPREPQVCTLPPSREEMTKNQVSLSCAVKGFYPSDIAVEWESNGQPENNYKTTPPVLDSDGSFFLVSKLTVDKSRWQQGNVFSCSVMHEALHNRFTQKSLSLSPGK
light: not shown
notes: also called 41-31E07-UCHT1v9; 41-E07 hUCHT1v9
Turning to B2, the concentration giving a half-maximal response (EC50 (read off the curve)) is around 2 nM in [12], around 2 nM with CD3 on CD3+ Jurkat cells [26], around 3 nM with CD3 on CD3+ Jurkat cells [14] and around 2 nM in [29]. The “times less binding affinity than to the G2-peptide A*01:01/b2m complex” value in test [25] was found to be 5000 fold. The Kd in test [27] is below 0.001 nM; in test [28], 5.52 nM. Further, the koff was below 1e-07 s⁻¹ in test [27] and 0.00557 s⁻¹ in [28]. The kon came to 566000 M⁻¹ s⁻¹ in [27] and 1.01e+06 M⁻¹ s⁻¹ in [28].
